Legend:
FLAG-HSP90AB1 (WT) [1] = target: T1, FLAG-HSP90AB1 (WT) (human, UniProt P08238 1-724); assay: anti-FLAG immunoprecipitation from 293T cells, Western blot with anti-Cdc37 (FIG. 5D); the wild type is the reference
T1 construct: Expressed in cells together with HA-SMYD2 (so it may be methylated by SMYD2 in the assay); not shown: FLAG tag
Description: (§1) Then, cell lysates were immunoblotted with anti-FLAG, anti-SMYD2 and anti-ACTB (an internal control) antibodies. Part B depicts the results of immunoprecipitation analysis using 293T cells co-transfected with FLAG-Mock or FLAG-HSP90AB1 (WT) and HA-HSP90AB1 (WT or K531A/K574A) expression vectors in the presence of an HA-SMYD2 expression vector. Immunoprecipitation was performed using anti-FLAG^{(registered trademark)} M2 agarose beads, and samples were immunoblotted with anti-FLAG and anti-HA antibodies. Part C depicts the results of immunoprecipitation analysis using 293T cells co-transfected with FLAG-Mock or FLAG-HSP90AB1 (WT) and HA-HSP90AB1 (WT, K531A or K574A) expression vectors in the presence of an HA-SMYD2 expression vector. Immunoprecipitation was performed using anti-FLAG^{(registered trademark)} M2 agarose beads, and samples were immunoblotted with anti-FLAG and anti-HA antibodies. Part D and E depict that the methylation of K574 on HSP90AB1 is important for binding to some co-chaperones. 293T cells were transfected with FLAG-HSP90AB1 (WT) or FLAG-HSP90AB1 (K531A/K574A) (D), FLAG-Mock, FLAG-HSP90AB1 (WT), FLAG-HSP90AB1 (K531A) or FLAG-HSP90AB1 (K574A) (E) expression vectors, in the presence of an HA-SMYD2 expression vector. […]

[2] = target: T2, FLAG-HSP90AB1 (K531A/K574A) (human, UniProt P08238 1-724); assay: anti-FLAG immunoprecipitation from 293T cells, Western blot with anti-p23 (FIG. 5D)
T2 construct: Expressed in 293T cells in the presence of HA-SMYD2; also called K531A/K574A substitution of HSP90AB1; not shown: FLAG tag
T2 sequence (P08238 whole entry K531A/K574A): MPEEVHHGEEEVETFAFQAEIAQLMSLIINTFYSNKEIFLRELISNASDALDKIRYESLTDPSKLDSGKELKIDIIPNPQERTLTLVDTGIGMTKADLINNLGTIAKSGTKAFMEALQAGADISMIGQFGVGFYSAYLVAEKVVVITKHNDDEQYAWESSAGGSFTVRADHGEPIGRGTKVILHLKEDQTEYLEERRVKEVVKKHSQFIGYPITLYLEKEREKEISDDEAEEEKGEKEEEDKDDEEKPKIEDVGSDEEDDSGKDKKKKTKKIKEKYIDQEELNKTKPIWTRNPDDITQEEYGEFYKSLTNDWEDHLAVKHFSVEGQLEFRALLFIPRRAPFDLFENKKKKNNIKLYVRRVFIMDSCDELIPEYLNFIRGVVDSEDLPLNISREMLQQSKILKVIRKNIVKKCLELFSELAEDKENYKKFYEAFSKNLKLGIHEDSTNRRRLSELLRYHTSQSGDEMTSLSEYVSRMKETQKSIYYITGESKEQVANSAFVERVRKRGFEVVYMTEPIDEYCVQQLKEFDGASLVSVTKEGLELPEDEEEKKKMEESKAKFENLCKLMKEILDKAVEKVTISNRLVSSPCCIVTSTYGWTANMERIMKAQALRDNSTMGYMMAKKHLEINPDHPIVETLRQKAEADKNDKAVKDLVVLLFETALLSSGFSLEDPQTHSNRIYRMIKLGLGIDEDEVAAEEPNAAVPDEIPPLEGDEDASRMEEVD
Description: as §1

FLAG-HSP90AB1 (K574A) = target: T3, FLAG-HSP90AB1 (K574A) (human, UniProt P08238 1-724); assay: anti-FLAG immunoprecipitation from 293T cells, Western blot with anti-p23 (FIG. 5E)
T3 construct: Expressed in 293T cells in the presence of HA-SMYD2; not shown: FLAG tag
T3 sequence (P08238 whole entry K574A): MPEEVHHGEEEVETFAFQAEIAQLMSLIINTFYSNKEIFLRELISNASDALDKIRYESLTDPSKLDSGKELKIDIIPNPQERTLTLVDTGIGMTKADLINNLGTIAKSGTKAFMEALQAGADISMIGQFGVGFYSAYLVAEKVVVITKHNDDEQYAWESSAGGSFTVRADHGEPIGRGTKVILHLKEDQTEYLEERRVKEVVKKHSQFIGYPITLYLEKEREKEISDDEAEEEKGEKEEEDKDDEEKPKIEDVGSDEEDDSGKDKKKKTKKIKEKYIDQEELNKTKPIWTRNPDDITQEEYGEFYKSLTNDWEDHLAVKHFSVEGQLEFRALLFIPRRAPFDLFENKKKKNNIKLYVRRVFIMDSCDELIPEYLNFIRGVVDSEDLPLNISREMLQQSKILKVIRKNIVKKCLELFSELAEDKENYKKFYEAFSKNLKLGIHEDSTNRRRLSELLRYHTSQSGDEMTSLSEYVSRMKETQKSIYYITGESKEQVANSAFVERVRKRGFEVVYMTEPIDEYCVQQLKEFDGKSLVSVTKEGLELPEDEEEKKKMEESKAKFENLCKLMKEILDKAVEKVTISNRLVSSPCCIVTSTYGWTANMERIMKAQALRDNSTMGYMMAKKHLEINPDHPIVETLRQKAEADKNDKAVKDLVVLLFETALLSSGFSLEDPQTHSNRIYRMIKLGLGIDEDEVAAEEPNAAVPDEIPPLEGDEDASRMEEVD
Description: as §1

FLAG-HSP90AB1 (WT) [3] = target: T1, FLAG-HSP90AB1 (WT); assay: anti-FLAG immunoprecipitation from 293T cells, Western blot with anti-p23 (FIG. 5D); the wild type is the reference
Description: as §1

T1 sequence (P08238 whole entry): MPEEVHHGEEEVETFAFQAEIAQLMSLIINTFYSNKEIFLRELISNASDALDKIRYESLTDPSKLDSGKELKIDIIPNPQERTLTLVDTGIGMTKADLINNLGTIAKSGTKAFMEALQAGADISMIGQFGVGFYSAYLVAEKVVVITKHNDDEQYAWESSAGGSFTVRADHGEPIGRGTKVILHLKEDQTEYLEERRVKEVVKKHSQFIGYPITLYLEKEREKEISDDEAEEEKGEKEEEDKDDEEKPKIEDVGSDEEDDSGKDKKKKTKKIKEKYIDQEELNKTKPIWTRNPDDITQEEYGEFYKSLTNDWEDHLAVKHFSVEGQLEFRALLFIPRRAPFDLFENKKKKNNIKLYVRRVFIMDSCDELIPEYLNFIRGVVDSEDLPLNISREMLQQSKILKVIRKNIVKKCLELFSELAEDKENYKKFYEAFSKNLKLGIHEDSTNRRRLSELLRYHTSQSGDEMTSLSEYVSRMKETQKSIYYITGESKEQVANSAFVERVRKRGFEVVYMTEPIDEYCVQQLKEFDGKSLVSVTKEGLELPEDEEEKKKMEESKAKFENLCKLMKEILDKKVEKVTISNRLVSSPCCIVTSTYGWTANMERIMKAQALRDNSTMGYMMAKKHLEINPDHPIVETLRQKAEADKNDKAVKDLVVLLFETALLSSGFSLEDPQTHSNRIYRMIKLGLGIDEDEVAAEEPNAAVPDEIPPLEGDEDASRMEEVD

binding result (FLAG-HSP90AB1 (WT) [1])	binding result [2]	binding result (FLAG-HSP90AB1 (K574A))	binding result (FLAG-HSP90AB1 (WT) [3])	Binder
binds	–	–	–	Cdc37 (other, UniProt Q16543 1-378, looked up, Endogenous in 293T cell lysate) MVDYSVWDHIEVSDDEDETHPNIDTASLFRWRHQARVERMEQFQKEKEELDRGCRECKRKVAECQRKLKELEVAEGGKAELERLQAEAQQLRKEERSWEQKLEEMRKKEKSMPWNVDTLSKDGFSKSMVNTKPEKTEEDSEEVREQKHKTFVEKYEKQIKHFGMLRRWDDSQKYLSDNVHLVCEETANYLVIWCIDLEVEEKCALMEQVAHQTIVMQFILELAKSLKVDPRACFRQFFTKIKTADRQYMEGFNDELEAFKERVRGRAKLRIEKAMKEYEEEERKKRLGPGGLDPVEVYESLPEELQKCFDVKDVQMLQDAISKMDPTDAKYHMQRCIDSGLWVPNSKASEAKEGEEAGPGDPLLEAVPKTGDEKDVSV
–	binds	binds	binds	p23 (other, UniProt Q15185 1-160, looked up, Endogenous in 293T cell lysate) MQPASAKWYDRRDYVFIEFCVEDSKDVNVNFEKSKLTFSCLGGSDNFKHLNEIDLFHCIDPNDSKHKRTDRSILCCLRKGESGQSWPRLTKERAKLNWLSVDFNNWKDWEDDSDEDMSNFDRFSEMMNNMGGDEDVDLPEVDGADDDSQDSDDEKMPDLE

Reference: patent publication US20140308678A1 (ONCOTHERAPY SCIENCE, published 2014)
